Measured values taken from US20220226493A1.

B1: CK6-SET0207 (CK6 with Fc modifications D265C H435A) (antibody, V domains shown)
VH: QVQLVQSGAAVKKPGESLKISCKGSGYRFTSYWIGWVRQMPGKGLEWMGIIYPGDSDTRYSPSFQGQVTISAGKSISTAYLQWSSLKASDTAMYYCARHGRGYNGYEGAFDIWGQGTMVTVSS
VL: AIQLTQSPSSLSASVGDRVTITCRASQGISSALAWYQQKPGKAPKLLIYDASSLESGVPSRFSGSGSGTDFTLTISSLQPEDFATYYCQQFNSYPLTFGGGTKVEIK
B2: CK6-D4 (anti-CD117 antibody CK6 with Fc modification S239C conjugated to calicheamicin) (antibody, DAR 1.72, V domains shown)
VH: B1 VH
VL: B1 VL
B3: CK6-DM (anti-CD117 antibody CK6 with Fc modification S239C conjugated to duocarmycin) (antibody, DAR 1.65, V domains shown)
VH: B1 VH
VL: B1 VL
B4: CK6-PNU (anti-CD117 antibody CK6 with Fc modification S239C conjugated to PNU) (antibody, DAR 1.4, V domains shown)
VH: B1 VH
VL: B1 VL
B5: CK6-PBD (anti-CD117 antibody CK6 with Fc modification S239C conjugated to PBD) (antibody, DAR 1.7, V domains shown)
VH: B1 VH
VL: B1 VL

Each binder was assayed against CD117 on Kasumi-1 cells, P10721 (assay: cell-based or functional assay).

Row | Binder | % Efficacy (in vitro Kasumi cell killing assay, CellTiter-Glo)
1 | B1 | 0%
2 | B2 | 0%
3 | B3 | 0%
4 | B4 | 85.7%
5 | B5 | 60.7%
